6 molecules from patent US20130209355A1 (Genmab, published 2013) can be followed below.

For test [1], the target named is Human recombinant CD38 (human, UniProt P28907 43-300, limits assumed). Description: cell-based or functional assay.
Test [2] addresses T1, CD38 on Daudi-luc cells (UniProt P28907 1-300).
T1 construct: whole, on cells; also called Daudi cells
Description: flow cytometry on Daudi-luc cells, anti-human IgG-FITC. A general note: A flow cytometer gives signals particle by particle.

Test [3] addresses T2, HA-CD38 (N-terminal HA tag, extracellular domain of human CD38), wild type (human, UniProt P28907 45-300).
T2 construct: Used as culture supernatant of HEK-293F cells, captured by anti-HA antibody; also called wild type (WT) CD38; pEE13.4HACD38
The experiment in a line: ELISA, HA-CD38 captured by anti-HA antibody. A general note: An ELISA detects its analyte on a solid surface through an enzyme-linked reagent.

In test [4] the target is T3, human CD38 on CD38-transfected CHO cells (CHO-CD38 cells) (human, UniProt P28907 1-300).
T3 construct: The construct used to transfect the CHO cells is not described; also called CHO cells transfected with CD38; cellular expressed CD38
The experiment in a line: flow cytometry on CHO-CD38 cells, anti-human IgG-FITC.

Take HuMab-KLH (antibody): the pmol cADPR/min (reverse cyclase reaction) (pmol cADPR/min) in test [1] came to 4.3.

B1: anti-CD38 antibody 025 (antibody, human IgG1, V domains shown)
VH: QVQLVQSGAEVKKPGSSVKVSCKAFGGTFSSYAISWVRQAPGQGLEWMGRIIRFLGKANHAQKFQGRVTLTADKSTNTAYMELSSLRSEDTAVYYCAGEPGDRDPDAVDIWGQGTMVTVSS
VL: DIQMTQSPSSLSASVGDRVTITCRASQGIRSWLAWYQQKPEKAPKSLIYAASSLQSGVPSRFSGSGSGTDFTLTISSLQPEDFATYYCQQYNSYPLTFGGGTKVEIK
For B1, the binding result in test [2], in test [3] and in test [4] was “binds” in each case.

B2: anti-CD38 antibody 028 (antibody, human IgG1, V domains shown)
VH: QVQLVQSGAEVKKPGSSVKVSCKAFGGTFSSYAISWVRQAPGQGLEWMGRIIRFLGIANYAQKFQGRVTLIADKSTNTAYMELSSLRSEDTAVYYCAGEPGERDPDAVDIWGQGTMVTVSS
VL: DIQMTQSPSSLSASVGDRVTITCRASQGIRSWLAWYQQKPEKAPKSLIYAASSLQSGVPSRFSGSGSGTDFTLTISSLQPEDFATYYCQQYNSYPLTFGGGTKVEIK
Regarding B2, in test [1], the “IC50 of inhibition of NAADP production (base-exchange activity, HPLC)” value stood at 0.14 µg/mL.

B3: anti-CD38 antibody 049 (antibody, human IgG1, V domains shown)
VH: QVQLVQSGAEVMKPGSSVKVSCKASGGTFRSYAISWVRQAPGQGLEWMGRIIVFLGKTNYAQKFQGRVTLTADKSTTTAYMELSSLRSEDTAVYYCTGEPGARDPDAFDIWGQGTMVTVSS
VL: DIQMTQSPSSLSASVGDRVTITCRASQGIRSWLAWYQQKPEKAPKSLIYAASSLQSGVPSRFSGSGSGTDFTLTISSLQPEDFATYYCQQYNNYPLTFGGGTKVEIK
B3: the binding result in test [2], in test [3] and in test [4] was “binds” in each case.

B4: anti-CD38 antibody 056 (antibody, human IgG1, V domains shown)
VH: QVQLVQSGAEVKKPGSSVKVSCKPSGGTFRSYAISWVRQAPGQGLEWMGRIIVFLGKVNYAQRFQGRVTLTADKSTTTAYMELSSLRSEDTAVYYCTGEPGARDPDAFDIWGQGTMVTVSS
VL: DIQMTQSPSSLSASVGDRVTITCRASQGIRSWLAWYQQKPEKAPKSLIYAASSLQSGVPSRFSGSGSGTDFTLTISSLQPEDFATYYCQQYNNYPLTFGGGTKVEIK
Turning to B4, the binding result in test [2] and in test [4] was “binds” throughout.

B5: anti-CD38 antibody 026 (antibody, human IgG1, V domains shown)
VH: QVQLVQSGAEVKKPGSSVKVSCKAFGGTFSSYAISWVRQAPGQGLEWMGRIIRFLGKTNHAQKFQGRVTLTADKSTNTAYMELSSLRSEDTAVYYCAGEPGDRDPDAVDIWGQGTMVTVSS
VL: DIQMTQSPSSLSASVGDRVTITCRASQGIRSWLAWYQQKPEKAPKSLIYAASSLQSGVPSRFSGSGSGTDFTLTISSLQPEDFATYYCQQYNSYPLTFGGGTKVEIK
notes: also called -057
In the case of B5, the binding result in test [2], in test [3] and in test [4] was “binds” each time.
